Biological target: T1, 32-N MB.v3
T1 construct: Self-assembled apoferritin nanocage (Multabody), plasmids co-transfected 3:1:1; monomeric IgG1 Fc chain at the C-terminus of C-ferritin, which dimerises in the particle; also called Multabody.v3; T-01 MBv2
Assay: BLI, His-tagged FcγRIIa on Ni-NTA biosensors, Multabody in solution [8f]

B1: FcRIIa (receptor, human, UniProt P12318 34-217, looked up)
receptor chain: QAAAPPKAVLKLEPPWINVLQEDSVTLTCQGARSPESDSIQWFHNGNLIPTHTQPSYRFKANNNDSGEYTCQTGQTSLSDPVHLTVLSEWLVLQTPHLEFQEGETIMLRCHSWKDKPLVKVTFFQNGKSQKFSHLDPTFSIPQANHSHSGDYHCTGNIGYTLFSSKPVTITVQVPSMGSSSPMG
notes: His-tagged ligand loaded on Ni-NTA biosensors; also called FcγRIIa
  binding result: no binding
